According to the supplement of paper PMC10065799, “High-throughput profiling of sequence recognition by tyrosine kinases and SH2 domains using bacterial peptide display” (eLife, 2023):

What follows are sequences tested on c-Src (assay: phosphorylation enrichment, bacterial display (enrichment ratio); higher = better substrate or ligand; peptides without Tyr show the background).
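Wherever SH2 binding enrichment of the phosphorylated peptide, bacterial display is given: peptide library displayed on the E. coli surface as eCPX fusions, selected cells deep-sequenced, score is each peptide's frequency after selection divided by its frequency in the input.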
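Wherever phosphorylation enrichment, bacterial display is given: 11-residue human phosphosite peptides and single-mutation variants displayed on the E. coli surface, counted by deep sequencing, each peptide's frequency after selection divided by its frequency in the unselected input library; frequency after pTyr selection over input frequency; kinase dosed for 20-30% of maximal phosphorylation in three min.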

Compared with ADFPDYKFRPR [SOX11_Y116_YF], KLSFSYGQALQ [ALDOB_Y302_R304Q] is higher in phosphorylation enrichment: 0.357 for the first, 0.41 for the second.

Going from FSEVRYVKEPF [HIPK4_Y170_YF] to VIDGKYAFKPK [GTF2E2_Y137], the phosphorylation enrichment falls from 0.44 to 0.328.

Compared with DIPIRYSITGV [CDH4_Y205], VVKLAYNENDN [CAMKK2_Y183] is higher in phosphorylation enrichment: 0.367 for the first, 0.404 for the second.

Going from VQEDIYDEFVV [ALDH2_Y332_E337V] to IRKKYYRAILE [CHD7_Y1218_Q1214R], the phosphorylation enrichment falls from 3.57 to 0.446.

Compared with PMDGEYFTLQI [TP53_Y327_L323M], RKRQFYLFKGK [RSPO4_Y112_C107R_YF] is lower in phosphorylation enrichment: 5.21 for the first, 0.809 for the second.

Going from YSIAQYCCRMG [LRRK2_Y2023_G2019S] to TTEHIYGDNFF [UBA7_Y524], the phosphorylation enrichment rises from 0.79 to 4.18.

Compared with KVALLYKPYFY [POLE_Y100_P99L], AVLALHNSTRD [TGFB1_Y81_Y81H] is lower in phosphorylation enrichment: 0.737 for the first, 0.322 for the second.

Compared with PNQRRYVYYYS [PTEN_Y174_S170N], GFCSWYRGWAP [TIMP3_Y195_YF] is lower in phosphorylation enrichment: 1.06 for the first, 0.773 for the second.

Going from PFSEPYADFGG [APBA1_Y187_YF] to EREFKYDAHNF [OAT_Y50_G51D_YF], the phosphorylation enrichment falls from 3.39 to 0.477.

Going from YLRTGYSVPYG [TGM1_Y370] to YKGKNYKPLDL [RPL35_Y78_K77N], the phosphorylation enrichment falls from 0.408 to 0.391.

First: TEQDPYNNIDR [MMUT_Y364_V368D]
Second: LRLSSYSTTIR [CYP7B1_Y365]
The phosphorylation enrichment of the first is lower: 0.486 for the first, 0.658 for the second.

Compared with ANNPLYKEATP [ITGB3_Y773_S778P], VMAALYGRLYE [BTD_Y536_T532M] is higher in phosphorylation enrichment: 0.374 for the first, 5.01 for the second.

Going from TNFRLYLRSLE [MTM1_Y71_YF] to CITIHYNYMCN [TP53_Y234_T230I], the phosphorylation enrichment falls from 0.476 to 0.381.

Going from VVQGIYGYHHY [UFSP2_Y285] to VDASFYGGRGV [ANTXR2_Y381_YF], the phosphorylation enrichment falls from 8.86 to 0.391.

With GEEIKYMLWLL [OTC_Y55_S60L] the phosphorylation enrichment was 0.544.

Each sequence was assayed against Grb2 SH2 (UniProt P62993) (assay: SH2 binding enrichment of the phosphorylated peptide, bacterial display (enrichment ratio); higher = better substrate or ligand; peptides without Tyr show the background).
Sequence of Grb2 SH2 (P62993 whole entry, looked up): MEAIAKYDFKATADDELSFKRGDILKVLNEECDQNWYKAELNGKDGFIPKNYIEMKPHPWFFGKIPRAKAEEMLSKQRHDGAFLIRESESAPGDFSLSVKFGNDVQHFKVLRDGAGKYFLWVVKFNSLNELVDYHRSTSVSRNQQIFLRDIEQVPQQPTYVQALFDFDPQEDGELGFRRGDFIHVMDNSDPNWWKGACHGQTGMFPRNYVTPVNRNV

Compared with ADFPDYKFRPR [SOX11_Y116_YF], KLSFSYGQALQ [ALDOB_Y302_R304Q] is lower in SH2 binding enrichment: 0.968 for the first, 0.861 for the second.

Going from FSEVRYVKEPF [HIPK4_Y170_YF] to VIDGKYAFKPK [GTF2E2_Y137], the SH2 binding enrichment falls from 1.03 to 0.873.

Going from DIPIRYSITGV [CDH4_Y205] to VVKLAYNENDN [CAMKK2_Y183], the SH2 binding enrichment rises from 0.774 to 0.904.

First: VQEDIYDEFVV [ALDH2_Y332_E337V]
Second: IRKKYYRAILE [CHD7_Y1218_Q1214R]
The SH2 binding enrichment of the first is higher: 0.824 for the first, 0.596 for the second.

Compared with PMDGEYFTLQI [TP53_Y327_L323M], RKRQFYLFKGK [RSPO4_Y112_C107R_YF] is lower in SH2 binding enrichment: 0.978 for the first, 0.295 for the second.

Going from YSIAQYCCRMG [LRRK2_Y2023_G2019S] to TTEHIYGDNFF [UBA7_Y524], the SH2 binding enrichment falls from 1.14 to 0.797.

Compared with KVALLYKPYFY [POLE_Y100_P99L], AVLALHNSTRD [TGFB1_Y81_Y81H] is lower in SH2 binding enrichment: 1.43 for the first, 0.752 for the second.

Compared with PNQRRYVYYYS [PTEN_Y174_S170N], GFCSWYRGWAP [TIMP3_Y195_YF] is lower in SH2 binding enrichment: 1.17 for the first, 0.953 for the second.

Compared with PFSEPYADFGG [APBA1_Y187_YF], EREFKYDAHNF [OAT_Y50_G51D_YF] is lower in SH2 binding enrichment: 0.862 for the first, 0.803 for the second.

Compared with YLRTGYSVPYG [TGM1_Y370], YKGKNYKPLDL [RPL35_Y78_K77N] is higher in SH2 binding enrichment: 0.848 for the first, 0.9 for the second.

Going from TEQDPYNNIDR [MMUT_Y364_V368D] to LRLSSYSTTIR [CYP7B1_Y365], the SH2 binding enrichment rises from 0.798 to 1.1.

Compared with ANNPLYKEATP [ITGB3_Y773_S778P], VMAALYGRLYE [BTD_Y536_T532M] is higher in SH2 binding enrichment: 0.869 for the first, 1.3 for the second.

Going from TNFRLYLRSLE [MTM1_Y71_YF] to CITIHYNYMCN [TP53_Y234_T230I], the SH2 binding enrichment rises from 0.678 to 1.56.

First: VVQGIYGYHHY [UFSP2_Y285]
Second: VDASFYGGRGV [ANTXR2_Y381_YF]
The SH2 binding enrichment of the first is higher: 1.12 for the first, 0.721 for the second.

Work on GEEIKYMLWLL [OTC_Y55_S60L] yielded an SH2 binding enrichment of 1.16.

These sequences were tested against SHP2-C SH2 in the same assay as above.

First: ADFPDYKFRPR [SOX11_Y116_YF]
Second: KLSFSYGQALQ [ALDOB_Y302_R304Q]
The SH2 binding enrichment of the first is lower: 0.544 for the first, 0.703 for the second.

First: FSEVRYVKEPF [HIPK4_Y170_YF]
Second: VIDGKYAFKPK [GTF2E2_Y137]
The SH2 binding enrichment of the first is higher: 0.783 for the first, 0.602 for the second.

Compared with DIPIRYSITGV [CDH4_Y205], VVKLAYNENDN [CAMKK2_Y183] is lower in SH2 binding enrichment: 0.972 for the first, 0.622 for the second.

Compared with VQEDIYDEFVV [ALDH2_Y332_E337V], IRKKYYRAILE [CHD7_Y1218_Q1214R] is lower in SH2 binding enrichment: 0.822 for the first, 0.725 for the second.

First: PMDGEYFTLQI [TP53_Y327_L323M]
Second: RKRQFYLFKGK [RSPO4_Y112_C107R_YF]
The SH2 binding enrichment of the first is higher: 0.407 for the first, 0.363 for the second.

Compared with YSIAQYCCRMG [LRRK2_Y2023_G2019S], TTEHIYGDNFF [UBA7_Y524] is lower in SH2 binding enrichment: 1.18 for the first, 0.577 for the second.

First: KVALLYKPYFY [POLE_Y100_P99L]
Second: AVLALHNSTRD [TGFB1_Y81_Y81H]
The SH2 binding enrichment of the first is higher: 1.44 for the first, 0.588 for the second.

Going from PNQRRYVYYYS [PTEN_Y174_S170N] to GFCSWYRGWAP [TIMP3_Y195_YF], the SH2 binding enrichment falls from 3.49 to 0.968.

First: PFSEPYADFGG [APBA1_Y187_YF]
Second: EREFKYDAHNF [OAT_Y50_G51D_YF]
The SH2 binding enrichment of the first is higher: 0.659 for the first, 0.629 for the second.

Going from YLRTGYSVPYG [TGM1_Y370] to YKGKNYKPLDL [RPL35_Y78_K77N], the SH2 binding enrichment falls from 1.64 to 0.846.

Going from TEQDPYNNIDR [MMUT_Y364_V368D] to LRLSSYSTTIR [CYP7B1_Y365], the SH2 binding enrichment rises from 0.731 to 0.823.

Compared with ANNPLYKEATP [ITGB3_Y773_S778P], VMAALYGRLYE [BTD_Y536_T532M] is higher in SH2 binding enrichment: 0.763 for the first, 1.53 for the second.

Compared with TNFRLYLRSLE [MTM1_Y71_YF], CITIHYNYMCN [TP53_Y234_T230I] is higher in SH2 binding enrichment: 0.661 for the first, 1.44 for the second.

Going from VVQGIYGYHHY [UFSP2_Y285] to VDASFYGGRGV [ANTXR2_Y381_YF], the SH2 binding enrichment falls from 1.11 to 0.576.

GEEIKYMLWLL [OTC_Y55_S60L] was tested, and the SH2 binding enrichment was 1.01.

The sequences below were run against c-Src SH2 in the same assay as above.

Compared with ADFPDYKFRPR [SOX11_Y116_YF], KLSFSYGQALQ [ALDOB_Y302_R304Q] is lower in SH2 binding enrichment: 0.614 for the first, 0.475 for the second.

First: FSEVRYVKEPF [HIPK4_Y170_YF]
Second: VIDGKYAFKPK [GTF2E2_Y137]
The SH2 binding enrichment of the first is higher: 0.487 for the first, 0.451 for the second.

Going from DIPIRYSITGV [CDH4_Y205] to VVKLAYNENDN [CAMKK2_Y183], the SH2 binding enrichment falls from 0.53 to 0.408.

First: VQEDIYDEFVV [ALDH2_Y332_E337V]
Second: IRKKYYRAILE [CHD7_Y1218_Q1214R]
The SH2 binding enrichment of the first is higher: 0.495 for the first, 0.394 for the second.

First: PMDGEYFTLQI [TP53_Y327_L323M]
Second: RKRQFYLFKGK [RSPO4_Y112_C107R_YF]
The SH2 binding enrichment of the first is higher: 0.394 for the first, 0.296 for the second.

Going from YSIAQYCCRMG [LRRK2_Y2023_G2019S] to TTEHIYGDNFF [UBA7_Y524], the SH2 binding enrichment falls from 2.36 to 0.478.

Going from KVALLYKPYFY [POLE_Y100_P99L] to AVLALHNSTRD [TGFB1_Y81_Y81H], the SH2 binding enrichment falls from 1.36 to 0.517.

Going from PNQRRYVYYYS [PTEN_Y174_S170N] to GFCSWYRGWAP [TIMP3_Y195_YF], the SH2 binding enrichment falls from 2.17 to 0.609.

First: PFSEPYADFGG [APBA1_Y187_YF]
Second: EREFKYDAHNF [OAT_Y50_G51D_YF]
The SH2 binding enrichment of the first is higher: 0.868 for the first, 0.543 for the second.

Compared with YLRTGYSVPYG [TGM1_Y370], YKGKNYKPLDL [RPL35_Y78_K77N] is lower in SH2 binding enrichment: 9.92 for the first, 0.516 for the second.

Going from TEQDPYNNIDR [MMUT_Y364_V368D] to LRLSSYSTTIR [CYP7B1_Y365], the SH2 binding enrichment falls from 2.23 to 0.796.

First: ANNPLYKEATP [ITGB3_Y773_S778P]
Second: VMAALYGRLYE [BTD_Y536_T532M]
The SH2 binding enrichment of the first is lower: 0.471 for the first, 1.52 for the second.

Compared with TNFRLYLRSLE [MTM1_Y71_YF], CITIHYNYMCN [TP53_Y234_T230I] is higher in SH2 binding enrichment: 0.449 for the first, 1.57 for the second.

Compared with VVQGIYGYHHY [UFSP2_Y285], VDASFYGGRGV [ANTXR2_Y381_YF] is lower in SH2 binding enrichment: 0.829 for the first, 0.5 for the second.

Sequence GEEIKYMLWLL [OTC_Y55_S60L] has an SH2 binding enrichment of 0.716.
